Source: patent US8318206

Assays:
[1] = molecular target: T1, Fmoc-Gly-Phe-Cys-NH2 (peptide 1)
T1 chain: GFC

[2] = molecular target: T2, Fmoc-Gly-d-Phe-d-Cys (peptide 2) (not fully specified)
T2 chain: GFC

B1: thermolysin from B. thermoproteolyticus Rokko (protein)
chain: ITGTSTVGVGRGVLGDQKNINTTYSTYYYLQDNTRGNGIFTYDAKYRTTLPGSLWADADNQFFASYDAPAVDAHYYAGVTYDYYKNVHNRLSYDGNNAAIRSSVHYSQGYNNAFWNGSQMVYGDGDGQTFIPLSGGIDVVAHELTHAVTDYTAGLIYQNESGAINEAISDIFGTLVEFYANKNPDWEIGEDVYTPGISGDSLRSMSDPAKYGDPDHYSKRYTGTQDNGGVHINSGIINKAAYLISQGGTHYGVSVVGIGRDKLGKIFYRALTQYLTPTSNFSQLRAAAVQSATDLYGSTSQEVASVKQAFDAVGVK
HPLC of the supernatant after thermolysin treatment (cleaved fragment) [1]: HPLC of the supernatant detected the presence of Fmoc-Gly only
shift in the plasmon resonance peak (UV-visible spectra), 6 h after addition of 7.2 nM thermolysin [1]: a clear shift in the plasmon resonance peak from 565 nm to 532 nm 6 h after addition of 7.2 nM thermolysin
Δ ratio A/D over a period of 47 h, 7.2 nM thermolysin [1]: The Δ ratio A/D increases over a period of 47 h for 7.2 nM and 2.08 zM, to 96.5% and 25.2% respectively
Δ ratio A/D over a period of 47 h, 2.08 zM thermolysin [1]: The Δ ratio A/D increases over a period of 47 h for 7.2 nM and 2.08 zM, to 96.5% and 25.2% respectively
dispersion of nanoparticle aggregate [2]: nanoparticles functionalised with Fmoc-Gly-d-Phe-d-Cys did not disperse upon introduction of thermolysin
